Experimental findings from article PMC4529235 are described below.

The target in experiment [1] is trimeric ASIC1a concatemeric fusion protein 3_(ASIC)FP (H8-(hA1a-N1Q7)2-hA1a) (human) (UniProt P78348). Nature of the experiment: cross-linking; BMOE (0.5 or 2 mM) at the cell surface of Xenopus oocytes and CHO cells before lysis, cell-surface biotinylated fractions, SDS-PAGE under reducing conditions, anti-ASIC1a western blot; band intensities pooled over oocytes and CHO cells. Background: A western blot detects proteins with antibodies after separation by electrophoresis.

For experiment [2] the target is unchanged. Kind of experiment: cross-linking; oxidation with 0.3 mM NaTT (20 min, 4°C) of Ni-NTA affinity-purified fractions from Xenopus oocytes and CHO cells, on the beads; non-reducing SDS-PAGE, anti-ASIC1a western blot.

Consider “single ASIC1a subunit available in cells expressing 3_(ASIC)FP”, for which the percent of ASIC1a that migrates as the tetramer in experiment [1] and in experiment [2] was > 60% each time.
